# Test results reported in patent US20200239597A1, “AN ANTI-APOPTOTIC FUNCTION OF PKM2 AND INTRACELLULARLY EXPRESSED SCFV ANTIBODIES” (La Jolla Institute for Allergy and Immunology, priority 2017, published 2020).
# Key:
# [1] = tested on: 293T cells; test: Clonogenic survival assay after BimS transfection, 293T cells; assay type: cell-based, human; settings: 293T cells
# Experimental: Control 293T or IB5-expressing cells were incubated with or without 27 µg/ml TEPP-46 for 3 h, then transfected with BimS cDNA in a further 24-h incubation also including TEPP-46 or vehicle. The plates were fixed and stained with crystal violet after 1 week. The total area of colonies (a measure of the total mass of proliferating cells) formed in each well from were quantified using ImageJ software; mean±SEM are shown from 3 independent experiments.
# Cell viability was measured with a Countess™ Automated Cell Counter (Invitrogen) using trypan blue. For the clonogenic survival assay, 293T or MEFs cells were seeded in 6-well plates at 1×10^5 cells/well in a 2-ml volume, transfected with BimS cDNA and incubated for 24 h. Afterwards, the medium was replaced and the cells cultured for 3-4 days. Thereafter, the plates were rinsed with PBS and fixed and stained with a solution containing crystal violet (0.5% w/v) and glutaraldehyde (6% v/v) as described (Franken et al., 2006).
# [2] = tested on: HCT116 cells; test: Clonogenic rescue from BimS-induced death, HCT116; assay type: cell-based
# [3] = target: T1, PKM2 (K422R) (Homo sapiens, UniProt P14618, K422R); test: Blue native gel electrophoresis, PKM2 (K422R); assay type: binding; settings: with or without FBP
# T1 construct: His; made in house; host or cells: Escherichia coli BL21(DE3) (stated generally for WT and mutant PKM2)
# T1 sequence (P14618 whole entry K422R): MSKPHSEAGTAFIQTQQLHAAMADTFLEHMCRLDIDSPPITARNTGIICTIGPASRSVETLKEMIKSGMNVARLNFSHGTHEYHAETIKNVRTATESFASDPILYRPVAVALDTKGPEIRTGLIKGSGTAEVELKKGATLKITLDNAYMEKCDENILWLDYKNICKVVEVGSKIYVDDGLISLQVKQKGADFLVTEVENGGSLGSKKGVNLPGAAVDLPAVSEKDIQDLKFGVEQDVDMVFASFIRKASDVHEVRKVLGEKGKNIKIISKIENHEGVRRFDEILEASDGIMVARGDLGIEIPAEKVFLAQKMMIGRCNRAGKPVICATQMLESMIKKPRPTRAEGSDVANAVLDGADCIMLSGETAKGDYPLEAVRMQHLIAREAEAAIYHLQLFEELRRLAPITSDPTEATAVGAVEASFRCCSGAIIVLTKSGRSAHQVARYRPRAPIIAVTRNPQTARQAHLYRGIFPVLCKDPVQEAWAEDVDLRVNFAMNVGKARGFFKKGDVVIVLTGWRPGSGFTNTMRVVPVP
# Experimental: Left: A monovalent form of scFv 5, produced in E. coli, induced tetramer formation in WT PKM2 along with a bandshift whose magnitude was dependent on the input amount of scFv 5. […] Reaction volume was 20 μl.
# To test the possibility that PKM2 tetramerization is important for the cell survival activity, the present inventors reconstituted PKM2-deficient MEFs with the stably tetrameric PKIM2 (K422R) mutant. […] Blue native gel electrophoresis confirmed the spontaneous formation of K422R tetramers, in the absence of FBP (FIG. 4A). […] The present inventors conclude that IB5 can bind to PKIM2 (K422R), at least to the active R-state form. Interaction of IB5 may further stabilize the active R-state conformation of PKM2, especially in the presence of the allosteric activators FBP or TEPP-46.
# [4] = target: T2, PKM2 (K270M) (Homo sapiens, UniProt P14618, K270M); test: Blue native gel electrophoresis, PKM2 (K270M); assay type: binding; settings: not shown
# T2 construct: His (N); made in house; host or cells: Escherichia coli BL21(DE3)
# T2 sequence (P14618 whole entry K270M): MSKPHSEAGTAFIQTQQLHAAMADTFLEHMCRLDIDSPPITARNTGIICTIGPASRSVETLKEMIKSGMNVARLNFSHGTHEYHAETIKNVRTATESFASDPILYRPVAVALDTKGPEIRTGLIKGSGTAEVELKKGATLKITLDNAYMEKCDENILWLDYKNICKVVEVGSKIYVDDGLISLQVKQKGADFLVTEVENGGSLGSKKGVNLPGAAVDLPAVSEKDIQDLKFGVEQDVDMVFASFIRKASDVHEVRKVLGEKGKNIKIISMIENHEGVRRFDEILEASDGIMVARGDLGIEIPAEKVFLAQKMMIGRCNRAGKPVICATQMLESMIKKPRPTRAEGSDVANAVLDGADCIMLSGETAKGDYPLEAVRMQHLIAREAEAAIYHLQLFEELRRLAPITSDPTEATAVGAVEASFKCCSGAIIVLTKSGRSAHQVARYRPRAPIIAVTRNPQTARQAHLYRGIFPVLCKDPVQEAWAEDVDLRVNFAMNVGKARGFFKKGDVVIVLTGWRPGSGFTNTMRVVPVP
# Excerpt: To begin to define the aspects of PKM2 function required for the IB5-induced anti-apoptotic effect, the present inventors reconstituted PKM2-null MEFs with WT or mutant forms of PKM2. The present inventors first analyzed the K270M mutation, reported to be catalytically dead (Bollenbach et al., 1999; Dombrauckas et al., 2005; Luo et al., 2011).
# [5] = target: T3, WT PKM2 (Homo sapiens, UniProt P14618); test: Pyruvate kinase assay (Kinase-Glo Plus), WT PKM2; assay type: biochemical; settings: PKM2 at 50 nM; ADP and PEP as substrates
# T3 construct: His (N); made in house; host or cells: Escherichia coli BL21(DE3)
# T3 sequence (P14618 whole entry): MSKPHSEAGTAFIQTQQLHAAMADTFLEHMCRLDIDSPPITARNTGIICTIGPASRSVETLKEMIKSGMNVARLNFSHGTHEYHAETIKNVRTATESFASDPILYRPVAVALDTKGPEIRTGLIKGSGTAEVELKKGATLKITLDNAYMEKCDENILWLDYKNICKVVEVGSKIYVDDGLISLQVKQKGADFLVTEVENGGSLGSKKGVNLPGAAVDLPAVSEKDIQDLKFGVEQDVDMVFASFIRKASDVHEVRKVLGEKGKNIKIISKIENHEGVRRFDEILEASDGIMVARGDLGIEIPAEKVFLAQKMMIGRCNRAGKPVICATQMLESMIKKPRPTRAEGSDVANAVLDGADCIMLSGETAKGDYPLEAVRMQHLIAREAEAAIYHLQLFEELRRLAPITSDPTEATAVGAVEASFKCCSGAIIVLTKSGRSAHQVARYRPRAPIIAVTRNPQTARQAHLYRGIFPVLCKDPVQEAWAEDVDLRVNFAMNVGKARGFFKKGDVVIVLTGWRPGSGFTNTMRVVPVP
# Experimental: (§1) Activity was measured by Kinase-Glo® Plus Luminescent Kinase Assay kit (promega), using ADP and PEP as substrates), with PKM2 at 50 nM. Shown are values with the basal activity of PKM2 alone subtracted out.
# (§2) Pyruvate kinase activity was measured by using Kinase-Glo® Plus Luminescent Kinase Assay kit (Promega). 50-100 nM of purified WT or mutant PKM2 was added in 100 μl assay buffer containing 50 mM Tris pH7.5, 100 mM KCl, 10 mM MgCl2, 200 μM PEP, 200 μM ADP, and 3% DMSO. After a 15-min incubation, Kinase-Glo Plus™ reagent (Promega Corporation, Madison, Wis., USA) was added, according to the manufacturer's instructions. In some cases, 0-40 μM fructose 1,6-bisphosphate (FBP) and 0-150 nM scFv 5 were added.
# [6] = target: T2, PKM2 (K270M); test: Pyruvate kinase assay, PKM2 (K270M); assay type: biochemical; settings: high concentrations of scFv 5
# Experimental: as §1, §2
# [7] = tested on: mitochondria isolated from 293T cells; test: Mitochondria isolation and cytochrome c release assay (MOMP induced by cleaved Bid); assay type: cell-based, human; settings: mitochondria from IB5-expressing 293T cells, 30 min at 37° C.
# Experimental: Control (top) or Intrabody-expressing (bottom) 293T cells were collected and the mitochondrial fraction was isolated by differential centrifugation. To induce MOMP, recombinant cBid protein was added at the indicated concentrations. After incubation for 30 min at 37° C., samples were centrifuged, and cytochrome c (cyt c) content in mitochondrial pellet fractions was analyzed by immunoblot. A representative of three independent experiments is shown. Right panel: densitometric quantification of average cytochrome c content ±SEM from three independent experiments.
# Mitochondria were isolated from 5×10^8 cells as described (Waterhouse et al., 2001). The freshly isolated mitochondria ([…]) were then incubated with recombinant cleaved Bid protein (Kuwana et al., 2002) at the indicated concentrations in the presence or absence of purified scFv #5. After incubation for 30 min at 37° C., mitochondria were collected by centrifugation at 10 000×g and analyzed by immunoblotting as described (Waterhouse et al., 2001).
# [8] = tested on: PKM2-deficient MEFs reconstituted with WT PKM2; test: Mitochondrial length by fluorescence microscopy (Tom20 staining); assay type: cell-based, mouse; settings: PKM2-null MEFs reconstituted with WT PKM2
# Excerpt: IB5 expression with WT PKM2 increased mitochondrial length, and PKM2 (K422R) expression increased mitochondrial length even in the absence of IB5. PKM2-deficient MEFs reconstituted with WT PKIM2 or PKM2(K422R) cDNA, were infected or not with IB5 lentivirus. […] Mitochondria were visualized by fluorescence microscopy after staining with Tom20 antibodies. Representative confocal images are shown.
# Cells were analyzed 3 d after transfection with the indicated cDNA constructs (mean±s.e.m. of 3-5 experiments of 120-200 random selected cells.
molecule,measurement,setting,value
"IB5: intracellularly expressed single-chain antibody (scFv) specific for PKM2, SEQ ID NO: 2; also made as monovalent recombinant scFv in E. coli (protein, artificial intrabody clone 5, also made as monovalent recombinant scFv in E. coli) scFv: MAQVQLVETGPGLVKPSETLSLRCTVSGGSFDNYYWNWIRQPPGKGLEYIGYVFPSTGATNYNPSLGSRVTISLDTSKNQFSLTLTSVTTADTAIYYCVRSGHDLWTGSTWFDPWGQWTTVTVSSGGGGSGGGGSGGGGSEIVLTQSPGTLSLSPGERATLSCRASQSVSSSYLAWYQQKPGQAPRLLIYGASSRATGIPDRFSGSGSGTDFTLTISRLEPEDIAVYYCQQRSNWPRTFGQGTKVEIKRGLGGLASVDYKDDDDK",clonogenic survival despite BimS expression,[1],produced clonogenic survival
same,protection from BimS-induced apoptosis (clonogenicity),[2],substantially protected
same,shift of the PKM2 (K422R) tetramer band,[3],shifted the tetramer band up only in the presence of allosteric activator FBP
same,stable tetramer formation of PKM2 (K270M),[4],prevented the protein from forming stable tetramers
same,glycolytic (pyruvate kinase) activity of WT PKM2,[5],stimulated PKM2's glycolytic activity in a concentration-dependent manner
same,catalytic activity of PKM2 (K270M),[6],increased the catalytic activity
same,resistance of mitochondria to MOMP induced by cleaved Bid protein,[7],reproducibly more resistant than control mitochondria to MOMP
same,average mitochondrial length,[8],increased the average mitochondrial length
